Drawing on publication PMC4226739 (The Journal of Cell Biology, 2014), this text covers koff for 2 molecules.

What all share (assay): FRAP in micropatterns
Experiment [1] concerns the target STAT2 fused to tagRFP-T (STAT2-tagRFP) (UniProt P52630 1-851).
Experiment [2] concerns the target STAT2 fused to monomeric EGFP (STAT2-EGFP) (UniProt P52630 1-851).
For experiment [3], the target named is tyk2 fused to monomeric EGFP (tyk2-EGFP) (UniProt P29597 1-1187).
Chain of tyk2 fused to monomeric EGFP (tyk2-EGFP) (P29597 whole entry, the tested form may be a part): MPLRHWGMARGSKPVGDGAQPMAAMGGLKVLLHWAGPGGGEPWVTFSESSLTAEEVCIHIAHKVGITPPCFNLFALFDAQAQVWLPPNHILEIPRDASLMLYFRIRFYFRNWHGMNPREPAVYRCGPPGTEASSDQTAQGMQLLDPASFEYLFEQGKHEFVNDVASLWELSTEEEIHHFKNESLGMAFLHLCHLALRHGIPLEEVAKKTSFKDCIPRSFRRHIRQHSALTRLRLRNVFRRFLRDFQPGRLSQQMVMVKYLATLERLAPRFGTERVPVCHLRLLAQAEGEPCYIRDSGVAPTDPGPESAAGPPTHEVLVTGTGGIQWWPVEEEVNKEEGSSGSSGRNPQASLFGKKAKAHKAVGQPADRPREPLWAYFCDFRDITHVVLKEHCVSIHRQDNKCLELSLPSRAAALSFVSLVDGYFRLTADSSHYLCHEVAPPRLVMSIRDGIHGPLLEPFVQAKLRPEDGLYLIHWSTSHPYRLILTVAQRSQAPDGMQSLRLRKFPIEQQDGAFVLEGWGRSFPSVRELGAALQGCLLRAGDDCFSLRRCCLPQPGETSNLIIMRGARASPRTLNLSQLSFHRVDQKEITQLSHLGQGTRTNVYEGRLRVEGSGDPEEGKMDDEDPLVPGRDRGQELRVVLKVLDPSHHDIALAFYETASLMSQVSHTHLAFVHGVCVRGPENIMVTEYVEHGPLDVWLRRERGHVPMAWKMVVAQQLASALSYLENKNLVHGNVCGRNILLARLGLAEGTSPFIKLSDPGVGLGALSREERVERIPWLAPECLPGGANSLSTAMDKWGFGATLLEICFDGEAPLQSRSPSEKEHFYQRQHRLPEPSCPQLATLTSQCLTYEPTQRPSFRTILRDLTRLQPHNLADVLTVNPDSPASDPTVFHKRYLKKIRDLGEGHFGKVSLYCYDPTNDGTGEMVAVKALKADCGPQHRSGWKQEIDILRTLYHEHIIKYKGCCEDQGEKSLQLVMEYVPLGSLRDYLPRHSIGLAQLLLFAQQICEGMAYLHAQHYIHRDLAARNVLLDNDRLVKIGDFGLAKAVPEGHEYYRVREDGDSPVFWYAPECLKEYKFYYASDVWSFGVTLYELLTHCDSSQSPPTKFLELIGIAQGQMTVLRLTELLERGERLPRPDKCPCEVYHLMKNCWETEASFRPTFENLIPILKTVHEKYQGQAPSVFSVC

Chain of STAT2 fused to monomeric EGFP (STAT2-EGFP) (P52630 whole entry, the tested form may be a part): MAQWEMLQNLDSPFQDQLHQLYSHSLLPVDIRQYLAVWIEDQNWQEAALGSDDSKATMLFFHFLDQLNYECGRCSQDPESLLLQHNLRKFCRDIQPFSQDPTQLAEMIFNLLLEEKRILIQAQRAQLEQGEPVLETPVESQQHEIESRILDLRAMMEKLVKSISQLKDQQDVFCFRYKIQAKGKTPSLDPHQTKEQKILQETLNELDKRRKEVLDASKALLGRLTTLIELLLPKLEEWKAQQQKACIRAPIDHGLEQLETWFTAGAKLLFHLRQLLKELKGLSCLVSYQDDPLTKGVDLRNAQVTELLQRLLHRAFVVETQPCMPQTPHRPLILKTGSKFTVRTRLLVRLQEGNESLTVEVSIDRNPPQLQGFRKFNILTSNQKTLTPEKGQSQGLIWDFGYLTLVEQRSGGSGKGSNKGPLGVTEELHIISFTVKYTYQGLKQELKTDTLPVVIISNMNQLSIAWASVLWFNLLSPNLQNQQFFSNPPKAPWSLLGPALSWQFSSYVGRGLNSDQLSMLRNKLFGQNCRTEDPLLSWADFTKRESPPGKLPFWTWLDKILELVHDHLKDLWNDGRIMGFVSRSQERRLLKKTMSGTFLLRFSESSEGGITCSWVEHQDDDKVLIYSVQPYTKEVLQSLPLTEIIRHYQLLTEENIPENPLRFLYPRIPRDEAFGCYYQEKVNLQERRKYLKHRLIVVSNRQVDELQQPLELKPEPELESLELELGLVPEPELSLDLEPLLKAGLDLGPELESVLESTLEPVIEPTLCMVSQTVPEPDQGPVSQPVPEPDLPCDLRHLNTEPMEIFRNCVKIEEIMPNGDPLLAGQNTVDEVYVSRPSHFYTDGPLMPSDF
Chain of STAT2 fused to tagRFP-T (STAT2-tagRFP) (P52630 whole entry, the tested form may be a part): as above

B1: HaloTag-IFNAR2 (receptor)
chain: ISYDSPDYTDESCTFKISLRNFRSILSWELKNHSIVPTHYTLLYTIMSKPEDLKVVKNCANTTRSFCDLTDEWRSTHEAYVTVLEGFSGNTTLFSCSHNFWLAIDMSFEPPEFEIVGFTNHINVMVKFPSIVEEELQFDLSLVIEEQSEGIVKKHKPEIKGNMSGNFTYIIDKLIPNTNYCVSVYLEHSDEQAVIKSPLKCTLLPPGQESESAESAKIGGIITVFLIALVLTSTIVTLKWIGYICLRNSLPKVLNFHNFLAWPFPNLPPLEAMDMVEVIYINRKKKVWDYNYDDESDSDTEAAPRTSGGGYTMHGLTVRPLGQASATSTESQLIDPESEEEPDLPEVDVELPTMPKDSPQQLELLSGPCERRKSPLQDPFPEEDYSSTEGSGGRITFNVDLNSVFLRVLDDEDSDDLEAPLMLSSHLEEMVDPEDPDNVQSNHLLASGEGTQPTFPSPSSEGLWSEDAPSDQSDTSESDVDLGDGYIMR
B1: the koff in experiment [1] was determined as 0.015 ± 0.005 s⁻¹; in experiment [2], 0.12 ± 0.05 s⁻¹.

B2: IFNAR1 fused to an N-terminal HaloTag (HaloTag-IFNAR1) (receptor)
chain: KNLKSPQKVEVDIIDDNFILRWNRSDESVGNVTFSFDYQKTGMDNWIKLSGCQNITSTKCNFSSLKLNVYEEIKLRIRAEKENTSSWYEVDSFTPFRKAQIGPPEVHLEAEDKAIVIHISPGTKDSVMWALDGLSFTYSLVIWKNSSGVEERIENIYSRHKIYKLSPETTYCLKVKAALLTSWKIGVYSPVHCIKTTVENELPPPENIEVSVQNQNYVLKWDYTYANMTFQVQWLHAFLKRNPGNHLYKWKQIPDCENVKTTQCVFPQNVFQKGIYLLRVQASDGNNTSFWSEEIKFDTEIQAFLLPPVFNIRSLSDSFHIYIGAPKQSGNTPVIQDYPLIYEIIFWENTSNAERKIIEKKTDVTVPNLKPLTVYCVKARAHTMDEKLNKSSVFSDAVCEKTKPGNTSKIWLIVGICIALFALPFVIYAAKVFLRCINYVFFPSLKPSSSIDEYFSEQPLKNLLLSTSEEQIEKCFIIENISTIATVEETNQTDEDHKKYSSQTSQDSGNYSNEDESESKTSEELQQDFV
In the case of B2, the koff in experiment [3] was roughly 0.0025 s⁻¹.

For orientation: koff means a measure of how fast the partners let go of each other. Read a high koff as fast dissociation.
